According to patent US11833164B2, “Methods of treating Fabry disease in patients having a mutation in the GLA gene” (Amicus Therapeutics, Inc., priority 2019, dated 2023):

Test system: mutant form of α-Gal A expressed in HEK-293 cells
Assay: HEK assay (GLP HEK / Migalastat Amenability Assay): α-Gal A activity in lysates of transiently transfected HEK-293 cells incubated with or without 10 μM migalastat
Type: cell-based, human
Conditions: for Absolute increase (% WT): 10 μM migalastat versus baseline; for Relative increase: 10 μM migalastat α-Gal A activity relative to baseline; for 10 μM migalastat α-Gal A activity (% WT): 5 days; for 10 μM migalastat α-Gal A activity (% WT) / Baseline α-Gal A activity (% WT): percentage of baseline wild-type α-Gal A activity; for 10 μM migalastat α-Gal A activity (% WT) / Baseline α-Gal A activity (% WT) / Baseline α-Gal A activity / 10 μM migalastat α-Gal A activity: mean ± SEM; for Baseline α-Gal A activity / 10 μM migalastat α-Gal A activity: lysates of HEK-293 cells transfected with the mutant form; for Baseline α-Gal A activity: incubated 5 days in the absence of migalastat; for 10 μM migalastat α-Gal A activity: incubated 5 days with 10 μM migalastat
Summary of the method: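 HEK-293 cells transiently transfected with mutant α-Gal A and incubated with or without 10 μM migalastat; lysate activity given as nmol free 4-MU released per mg protein per hour. Values are mean±SEM.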

Row | Molecule | Absolute increase (% WT) | Relative increase | 10 μM migalastat α-Gal A activity (% WT) | Baseline α-Gal A activity (% WT) (absence of migalastat) | Baseline α-Gal A activity | 10 μM migalastat α-Gal A activity | Baseline α-Gal A activity (nmol/mg/hr) (absence of migalastat, mean activity below the limit of detection (<142 nmol/mg/hr))
1 | P146T (protein) MQLRNPELHLGCALALRFLALVSWDIPGARALDNGLARTPTMGWLHWERFMCNLDCQEEPDSCISEKLFMEMAELMVSEGWKDAGYEYLCIDDCWMAPQRDSEGRLQADPQRFPHGIRQLANYVHSKGLKLGIYADVGNKTCAGFTGSFGYYDIDAQTFADWGVDLLKFDGCYCDSLENLADGYKHMSLALNRTGRSIVYSCEWPLYMWPFQKPNYTEIRQYCNHWRNFADIDDSWKSIKSILDWTSFNQERIVDVAGPGGWNDPDMLVIGNFGLSWNQQVTQMALWAIMAAPLFMSNDLRHISPQAKALLQDKDVIAINQDPLGKQGYQLRQGDNFEVWERPLSGLAWAVAMINRQEIGGPRSYTIAVASLGKGVACNPACFITQLLPVKRKLGFYEWTSRLRSHINPTGTVLLQLENTMQMSLKDLL | 25.0 % WT | 1.8 | 58.6 ± 2.4 % WT | 33.6 ± 1.5 % WT | 13711 ± 1154 nmol/mg/h | 24123 ± 2081 nmol/mg/h | 
2 | G147A (protein) MQLRNPELHLGCALALRFLALVSWDIPGARALDNGLARTPTMGWLHWERFMCNLDCQEEPDSCISEKLFMEMAELMVSEGWKDAGYEYLCIDDCWMAPQRDSEGRLQADPQRFPHGIRQLANYVHSKGLKLGIYADVGNKTCAGFPASFGYYDIDAQTFADWGVDLLKFDGCYCDSLENLADGYKHMSLALNRTGRSIVYSCEWPLYMWPFQKPNYTEIRQYCNHWRNFADIDDSWKSIKSILDWTSFNQERIVDVAGPGGWNDPDMLVIGNFGLSWNQQVTQMALWAIMAAPLFMSNDLRHISPQAKALLQDKDVIAINQDPLGKQGYQLRQGDNFEVWERPLSGLAWAVAMINRQEIGGPRSYTIAVASLGKGVACNPACFITQLLPVKRKLGFYEWTSRLRSHINPTGTVLLQLENTMQMSLKDLL | 3.0 % WT |  | 3 ± 0.2 % WT |  |  | 1159 ± 74 nmol/mg/h | BLD (“BLD” indicates that the mean α-Gal A activity was below the limit of detection (<142 nmol/mg/hr))
3 | S148C (protein) MQLRNPELHLGCALALRFLALVSWDIPGARALDNGLARTPTMGWLHWERFMCNLDCQEEPDSCISEKLFMEMAELMVSEGWKDAGYEYLCIDDCWMAPQRDSEGRLQADPQRFPHGIRQLANYVHSKGLKLGIYADVGNKTCAGFPGCFGYYDIDAQTFADWGVDLLKFDGCYCDSLENLADGYKHMSLALNRTGRSIVYSCEWPLYMWPFQKPNYTEIRQYCNHWRNFADIDDSWKSIKSILDWTSFNQERIVDVAGPGGWNDPDMLVIGNFGLSWNQQVTQMALWAIMAAPLFMSNDLRHISPQAKALLQDKDVIAINQDPLGKQGYQLRQGDNFEVWERPLSGLAWAVAMINRQEIGGPRSYTIAVASLGKGVACNPACFITQLLPVKRKLGFYEWTSRLRSHINPTGTVLLQLENTMQMSLKDLL | 19.3 % WT | 1.6 | 49.5 ± 2 % WT | 30.2 ± 2.2 % WT | 11927 ± 1020 nmol/mg/h | 19343 ± 919 nmol/mg/h | 
4 | S148G (protein) MQLRNPELHLGCALALRFLALVSWDIPGARALDNGLARTPTMGWLHWERFMCNLDCQEEPDSCISEKLFMEMAELMVSEGWKDAGYEYLCIDDCWMAPQRDSEGRLQADPQRFPHGIRQLANYVHSKGLKLGIYADVGNKTCAGFPGGFGYYDIDAQTFADWGVDLLKFDGCYCDSLENLADGYKHMSLALNRTGRSIVYSCEWPLYMWPFQKPNYTEIRQYCNHWRNFADIDDSWKSIKSILDWTSFNQERIVDVAGPGGWNDPDMLVIGNFGLSWNQQVTQMALWAIMAAPLFMSNDLRHISPQAKALLQDKDVIAINQDPLGKQGYQLRQGDNFEVWERPLSGLAWAVAMINRQEIGGPRSYTIAVASLGKGVACNPACFITQLLPVKRKLGFYEWTSRLRSHINPTGTVLLQLENTMQMSLKDLL | 11.8 % WT | 11.2 | 12.9 ± 1 % WT | 1.1 ± 0.1 % WT | 435 ± 55 nmol/mg/h | 4879 ± 263 nmol/mg/h | 
5 | S148T (protein) MQLRNPELHLGCALALRFLALVSWDIPGARALDNGLARTPTMGWLHWERFMCNLDCQEEPDSCISEKLFMEMAELMVSEGWKDAGYEYLCIDDCWMAPQRDSEGRLQADPQRFPHGIRQLANYVHSKGLKLGIYADVGNKTCAGFPGTFGYYDIDAQTFADWGVDLLKFDGCYCDSLENLADGYKHMSLALNRTGRSIVYSCEWPLYMWPFQKPNYTEIRQYCNHWRNFADIDDSWKSIKSILDWTSFNQERIVDVAGPGGWNDPDMLVIGNFGLSWNQQVTQMALWAIMAAPLFMSNDLRHISPQAKALLQDKDVIAINQDPLGKQGYQLRQGDNFEVWERPLSGLAWAVAMINRQEIGGPRSYTIAVASLGKGVACNPACFITQLLPVKRKLGFYEWTSRLRSHINPTGTVLLQLENTMQMSLKDLL | 15.9 % WT | 1.2 | 82.4 ± 3.7 % WT | 66.5 ± 3.8 % WT | 24827 ± 1221 nmol/mg/h | 30620 ± 813 nmol/mg/h | 
6 | F149C (protein) MQLRNPELHLGCALALRFLALVSWDIPGARALDNGLARTPTMGWLHWERFMCNLDCQEEPDSCISEKLFMEMAELMVSEGWKDAGYEYLCIDDCWMAPQRDSEGRLQADPQRFPHGIRQLANYVHSKGLKLGIYADVGNKTCAGFPGSCGYYDIDAQTFADWGVDLLKFDGCYCDSLENLADGYKHMSLALNRTGRSIVYSCEWPLYMWPFQKPNYTEIRQYCNHWRNFADIDDSWKSIKSILDWTSFNQERIVDVAGPGGWNDPDMLVIGNFGLSWNQQVTQMALWAIMAAPLFMSNDLRHISPQAKALLQDKDVIAINQDPLGKQGYQLRQGDNFEVWERPLSGLAWAVAMINRQEIGGPRSYTIAVASLGKGVACNPACFITQLLPVKRKLGFYEWTSRLRSHINPTGTVLLQLENTMQMSLKDLL | 13.9 % WT | 1.3 | 60.9 ± 6.4 % WT | 47 ± 4.4 % WT | 15198 ± 1188 nmol/mg/h | 19032 ± 1272 nmol/mg/h | 
7 | G150E (protein) MQLRNPELHLGCALALRFLALVSWDIPGARALDNGLARTPTMGWLHWERFMCNLDCQEEPDSCISEKLFMEMAELMVSEGWKDAGYEYLCIDDCWMAPQRDSEGRLQADPQRFPHGIRQLANYVHSKGLKLGIYADVGNKTCAGFPGSFEYYDIDAQTFADWGVDLLKFDGCYCDSLENLADGYKHMSLALNRTGRSIVYSCEWPLYMWPFQKPNYTEIRQYCNHWRNFADIDDSWKSIKSILDWTSFNQERIVDVAGPGGWNDPDMLVIGNFGLSWNQQVTQMALWAIMAAPLFMSNDLRHISPQAKALLQDKDVIAINQDPLGKQGYQLRQGDNFEVWERPLSGLAWAVAMINRQEIGGPRSYTIAVASLGKGVACNPACFITQLLPVKRKLGFYEWTSRLRSHINPTGTVLLQLENTMQMSLKDLL | 12.3 % WT | 1.2 | 73.8 ± 7 % WT | 61.5 ± 6.6 % WT | 18804 ± 1070 nmol/mg/h | 22710 ± 1059 nmol/mg/h | 
8 | G150V (protein) MQLRNPELHLGCALALRFLALVSWDIPGARALDNGLARTPTMGWLHWERFMCNLDCQEEPDSCISEKLFMEMAELMVSEGWKDAGYEYLCIDDCWMAPQRDSEGRLQADPQRFPHGIRQLANYVHSKGLKLGIYADVGNKTCAGFPGSFVYYDIDAQTFADWGVDLLKFDGCYCDSLENLADGYKHMSLALNRTGRSIVYSCEWPLYMWPFQKPNYTEIRQYCNHWRNFADIDDSWKSIKSILDWTSFNQERIVDVAGPGGWNDPDMLVIGNFGLSWNQQVTQMALWAIMAAPLFMSNDLRHISPQAKALLQDKDVIAINQDPLGKQGYQLRQGDNFEVWERPLSGLAWAVAMINRQEIGGPRSYTIAVASLGKGVACNPACFITQLLPVKRKLGFYEWTSRLRSHINPTGTVLLQLENTMQMSLKDLL | 9.2 % WT | 4.3 | 12.1 ± 0.7 % WT | 2.9 ± 0.1 % WT | 1080 ± 63 nmol/mg/h | 4639 ± 361 nmol/mg/h | 
9 | Y151C (protein) MQLRNPELHLGCALALRFLALVSWDIPGARALDNGLARTPTMGWLHWERFMCNLDCQEEPDSCISEKLFMEMAELMVSEGWKDAGYEYLCIDDCWMAPQRDSEGRLQADPQRFPHGIRQLANYVHSKGLKLGIYADVGNKTCAGFPGSFGCYDIDAQTFADWGVDLLKFDGCYCDSLENLADGYKHMSLALNRTGRSIVYSCEWPLYMWPFQKPNYTEIRQYCNHWRNFADIDDSWKSIKSILDWTSFNQERIVDVAGPGGWNDPDMLVIGNFGLSWNQQVTQMALWAIMAAPLFMSNDLRHISPQAKALLQDKDVIAINQDPLGKQGYQLRQGDNFEVWERPLSGLAWAVAMINRQEIGGPRSYTIAVASLGKGVACNPACFITQLLPVKRKLGFYEWTSRLRSHINPTGTVLLQLENTMQMSLKDLL | 13.2 % WT | 1.4 | 45.6 ± 2 % WT | 32.4 ± 1.5 % WT | 11271 ± 579 nmol/mg/h | 15859 ± 752 nmol/mg/h | 
